B1: ZNF326: host protein, UniProt Q5BKZ1 (protein, UniProt Q5BKZ1 1-582, looked up)
DBIRD complex subunit ZNF326: MDFEDDYTHSACRNTYQGFNGMDRDYGPGSYGGMDRDYGHGSYGGQRSMDSYLNQSYGMDNHSGGGGGSRFGPYESYDSRSSLGGRDLYRSGYGFNEPEQSRFGGSYGGRFESSYRNSLDSFGGRNQGGSSWEAPYSRSKLRPGFMEDRGRENYSSYSSFSSPHMKPAPVGSRGRGTPAYPESTFGSRNYDAFGGPSTGRGRGRGHMGDFGSIHRPGIVVDYQNKSTNVTVAAARGIKRKMMQPFNKPSGTFIKKPKLAKPMEKISLSKSPTKTDPKNEEEEKRRIEARREKQRRRREKNSEKYGDGYRMAFTCSFCKFRTFEEKDIELHLESSSHQETLDHIQKQTKFDKVVMEFLHECMVNKFKKTSIRKQQTNNQTEVVKIIEKDVMEGVTVDDHMMKVETVHCSACSVYIPALHSSVQQHLKSPDHIKGKQAYKEQIKRESVLTATSILNNPIVKARYERFVKGENPFEIQDHSQDQQIEGDEEDEEKIDEPIEEEEDEDEEEEAEEVGEVEEVEEVEEVREGGIEGEGNIQGVGEGGEVGVVGEVEGVGEVEEVEELEEETAKEEPADFPVEQPEEN
B2: DKC1 (protein, UniProt O60832 2-514, looked up)
H/ACA ribonucleoprotein …: ADAEVIILPKKHKKKKERKSLPEEDVAEIQHAEEFLIKPESKVAKLDTSQWPLLLKNFDKLNVRTTHYTPLACGSNPLKREIGDYIRTGFINLDKPSNPSSHEVVAWIRRILRVEKTGHSGTLDPKVTGCLIVCIERATRLVKSQQSAGKEYVGIVRLHNAIEGGTQLSRALETLTGALFQRPPLIAAVKRQLRVRTIYESKMIEYDPERRLGIFWVSCEAGTYIRTLCVHLGLLLGVGGQMQELRRVRSGVMSEKDHMVTMHDVLDAQWLYDNHKDESYLRRVVYPLEKLLTSHKRLVMKDSAVNAICYGAKIMLPGVLRYEDGIEVNQEIVVITTKGEAICMAIALMTTAVISTCDHGIVAKIKRVIMERDTYPRKWGLGPKASQKKLMIKQGLLDKHGKPTDSTPATWKQEYVDYSESAKKEVVAEVVKAPQVVAEAAKTAKRKRESESESDETPPAAPQLIKKEKKKSKKDKKAKAGLESGAEPGDGDSDTTKKKKKKKKAKEVELVSE
B3: APOBEC3F (protein, UniProt Q8IUX4 1-373, looked up)
DNA dC->dU-editing enzyme …: MKPHFRNTVERMYRDTFSYNFYNRPILSRRNTVWLCYEVKTKGPSRPRLDAKIFRGQVYSQPEHHAEMCFLSWFCGNQLPAYKCFQITWFVSWTPCPDCVAKLAEFLAEHPNVTLTISAARLYYYWERDYRRALCRLSQAGARVKIMDDEEFAYCWENFVYSEGQPFMPWYKFDDNYAFLHRTLKEILRNPMEAMYPHIFYFHFKNLRKAYGRNESWLCFTMEVVKHHSPVSWKRGVFRNQVDPETHCHAERCFLSWFCDDILSPNTNYEVTWYTSWSPCPECAGEVAEFLARHSNVNLTIFTARLYYFWDTDYQEGLRSLSQEGASVEIMGYKDFKYCWENFVYNDDEPFKPWKGLKYNFLFLDSKLQEILE
B4: ADAR (protein, UniProt P55265 1-1226, looked up)
Double-stranded RNA-specific …: MNPRQGYSLSGYYTHPFQGYEHRQLRYQQPGPGSSPSSFLLKQIEFLKGQLPEAPVIGKQTPSLPPSLPGLRPRFPVLLASSTRGRQVDIRGVPRGVHLRSQGLQRGFQHPSPRGRSLPQRGVDCLSSHFQELSIYQDQEQRILKFLEELGEGKATTAHDLSGKLGTPKKEINRVLYSLAKKGKLQKEAGTPPLWKIAVSTQAWNQHSGVVRPDGHSQGAPNSDPSLEPEDRNSTSVSEDLLEPFIAVSAQAWNQHSGVVRPDSHSQGSPNSDPGLEPEDSNSTSALEDPLEFLDMAEIKEKICDYLFNVSDSSALNLAKNIGLTKARDINAVLIDMERQGDVYRQGTTPPIWHLTDKKRERMQIKRNTNSVPETAPAAIPETKRNAEFLTCNIPTSNASNNMVTTEKVENGQEPVIKLENRQEARPEPARLKPPVHYNGPSKAGYVDFENGQWATDDIPDDLNSIRAAPGEFRAIMEMPSFYSHGLPRCSPYKKLTECQLKNPISGLLEYAQFASQTCEFNMIEQSGPPHEPRFKFQVVINGREFPPAEAGSKKVAKQDAAMKAMTILLEEAKAKDSGKSEESSHYSTEKESEKTAESQTPTPSATSFFSGKSPVTTLLECMHKLGNSCEFRLLSKEGPAHEPKFQYCVAVGAQTFPSVSAPSKKVAKQMAAEEAMKALHGEATNSMASDNQPEGMISESLDNLESMMPNKVRKIGELVRYLNTNPVGGLLEYARSHGFAAEFKLVDQSGPPHEPKFVYQAKVGGRWFPAVCAHSKKQGKQEAADAALRVLIGENEKAERMGFTEVTPVTGASLRRTMLLLSRSPEAQPKTLPLTGSTFHDQIAMLSHRCFNTLTNSFQPSLLGRKILAAIIMKKDSEDMGVVVSLGTGNRCVKGDSLSLKGETVNDCHAEIISRRGFIRFLYSELMKYNSQTAKDSIFEPAKGGEKLQIKKTVSFHLYISTAPCGDGALFDKSCSDRAMESTESRHYPVFENPKQGKLRTKVENGEGTIPVESSDIVPTWDGIRLGERLRTMSCSDKILRWNVLGLQGALLTHFLQPIYLKSVTLGYLFSQGHLTRAICCRVTRDGSAFEDGLRHPFIVNHPKVGRVSIYDSKRQSGKTKETSVNWCLADGYDLEILDGTRGTVDGPRNELSRVSKKNIFLLFKKLCSFRYRRDLLRLSYGEAKKAARDYETAKNYFKKGLKDMGYGNWISKPQEEKNFYLCPV
B5: KRT10 (protein, UniProt P13645 1-584, looked up)
Keratin, type I cytoskeletal …: MSVRYSSSKHYSSSRSGGGGGGGGCGGGGGVSSLRISSSKGSLGGGFSSGGFSGGSFSRGSSGGGCFGGSSGGYGGLGGFGGGSFRGSYGSSSFGGSYGGIFGGGSFGGGSFGGGSFGGGGFGGGGFGGGFGGGFGGDGGLLSGNEKVTMQNLNDRLASYLDKVRALEESNYELEGKIKEWYEKHGNSHQGEPRDYSKYYKTIDDLKNQILNLTTDNANILLQIDNARLAADDFRLKYENEVALRQSVEADINGLRRVLDELTLTKADLEMQIESLTEELAYLKKNHEEEMKDLRNVSTGDVNVEMNAAPGVDLTQLLNNMRSQYEQLAEQNRKDAEAWFNEKSKELTTEIDNNIEQISSYKSEITELRRNVQALEIELQSQLALKQSLEASLAETEGRYCVQLSQIQAQISALEEQLQQIRAETECQNTEYQQLLDIKIRLENEIQTYRSLLEGEGSSGGGGRGGGSFGGGYGGGSSGGGSSGGGHGGGHGGSSGGGYGGGSSGGGSSGGGYGGGSSSGGHGGSSSGGYGGGSSGGGGGGYGGGSSGGGSSSGGGYGGGSSSGGHKSSSSGSVGESSSKGPRY
B6: LARP7: host protein, UniProt Q4G0J3 (protein, UniProt Q4G0J3 1-582, looked up)
La-related protein 7: METESGNQEKVMEEESTEKKKEVEKKKRSRVKQVLADIAKQVDFWFGDANLHKDRFLREQIEKSRDGYVDISLLVSFNKMKKLTTDGKLIARALRSSAVVELDLEGTRIRRKKPLGERPKDEDERTVYVELLPKNVNHSWIERVFGKCGNVVYISIPHYKSTGDPKGFAFVEFETKEQAAKAIEFLNNPPEEAPRKPGIFPKTVKNKPIPALRVVEEKKKKKKKKGRMKKEDNIQAKEENMDTSNTSISKMKRSRPTSEGSDIESTEPQKQCSKKKKKRDRVEASSLPEVRTGKRKRSSSEDAESLAPRSKVKKIIQKDIIKEASEASKENRDIEISTEEEKDTGDLKDSSLLKTKRKHKKKHKERHKMGEEVIPLRVLSKSEWMDLKKEYLALQKASMASLKKTISQIKSESEMETDSGVPQNTGMKNEKTANREECRTQEKVNATGPQFVSGVIVKIISTEPLPGRKQVRDTLAAISEVLYVDLLEGDTECHARFKTPEDAQAVINAYTEINKKHCWKLEILSGDHEQRYWQKILVDRQAKLNQPREKKRGTEKLITKAEKIRLAKTQQASKHIRFSEYD

What follows are molecules tested on gRNA of HCoV-OC43. Settings: type n_48_v: 48 hours post-infection, infected cells, OC43 Probe I; unweighted spectral count.
Type: binding

| Molecule | target (spectral count, OC43 Probe I RNP capture) |
| --- | --- |
| B1 | 10 |
| B2 | 6 |
| B3 | 6 |
| B4 | 11 |
| B5 | 14 |
| B6 | 6 |

Same assay, conditions: type n_48_v: 48 hours post-infection, no-probe control on infected cells

| Molecule | background (spectral count, no-probe control) |
| --- | --- |
| B1 | 2 |
| B2 | 1 |
| B3 | 1 |
| B4 | 2 |
| B5 | 3 |
| B6 | 1 |

The molecules below were run on HCoV-OC43 gRNA and sgRNA. Settings: 24 hpi; type n_24_v; tested against no-probe control; FDR<10%.
Type: binding

| Molecule | target (unweighted spectral count, OC43 Probe II capture) |
| --- | --- |
| B1 | 4 |

Same assay, conditions: 36 hpi; type n_36_v; tested against no-probe control; FDR<10%

| Molecule | target (unweighted spectral count, OC43 Probe II capture) |
| --- | --- |
| B1 | 7 |
| B3 | 4 |
| B6 | 7 |

Same assay, conditions: type n_48_v; 48 hpi; OC43 Probe II capture on infected cells

| Molecule | target (unweighted spectral count, OC43 Probe II) |
| --- | --- |
| B1 | 8 |
| B2 | 9 |
| B3 | 6 |
| B4 | 11 |
| B5 | 22 |
| B6 | 9 |

Same assay, conditions: type n_48_v; 48 hpi; no-probe control on infected cells

| Molecule | background (unweighted spectral count, no-probe control) |
| --- | --- |
| B1 | 2 |
| B2 | 1 |
| B3 | 1 |
| B4 | 2 |
| B5 | 3 |
| B6 | 1 |

Same assay, conditions: type s_36_m; HCoV-OC43-infected HCT-8 cells, 36 hpi, Probe II

| Molecule | target (spectral count) |
| --- | --- |
| B1 | 7 |
| B6 | 7 |

Same assay, conditions: type s_36_m; uninfected-probe control, 36 hpi, Probe II

| Molecule | background (spectral count) |
| --- | --- |
| B1 | 1 |
| B6 | 1 |

— patent US20230407373A1 (priority 2020, published 2023)
